The target in assay [1] is T1, Apolipoprotein E4 (human, UniProt P02649 19-317).
T1 construct: also called ApoE4; hApoE4
Nature of the assay: pH affinity ELISA, coated hApoE4, pH 7.4. A general note: An ELISA detects its analyte on a solid surface through an enzyme-linked reagent.

Assay [2] concerns the target T2, mouse ApoE (mouse, UniProt P08226 19-311, limits assumed).
T2 construct: also called msApoE; ms ApoE
T2 sequence (looked up): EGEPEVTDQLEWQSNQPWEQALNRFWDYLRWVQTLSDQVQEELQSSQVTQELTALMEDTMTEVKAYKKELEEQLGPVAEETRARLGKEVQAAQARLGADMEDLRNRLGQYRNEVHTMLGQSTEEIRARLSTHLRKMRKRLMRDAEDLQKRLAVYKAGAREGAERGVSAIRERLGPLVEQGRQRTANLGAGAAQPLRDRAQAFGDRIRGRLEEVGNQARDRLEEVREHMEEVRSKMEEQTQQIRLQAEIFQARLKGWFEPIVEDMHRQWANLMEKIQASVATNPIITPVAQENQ
Nature of the assay: pH affinity ELISA, coated mouse ApoE, pH 6.0.

Assay [3] concerns the target T2, mouse ApoE. Kind of assay: pH affinity ELISA, coated mouse ApoE, pH 7.4.
The target of assay [4] is T2, mouse ApoE. Kind of assay: pH affinity ELISA, coated mouse ApoE.
The target in assay [5] is T1, Apolipoprotein E4. Kind of assay: pH affinity ELISA, coated hApoE4.
Assay [6] addresses T1, Apolipoprotein E4. Nature of the assay: pH affinity ELISA, coated hApoE4, pH 6.0.
For assay [7], the target named is T3, Apolipoprotein E3 (human, UniProt P02649 19-317).
T3 construct: also called ApoE3; hApoE3
T3 sequence (P02649 19-317 limits assumed): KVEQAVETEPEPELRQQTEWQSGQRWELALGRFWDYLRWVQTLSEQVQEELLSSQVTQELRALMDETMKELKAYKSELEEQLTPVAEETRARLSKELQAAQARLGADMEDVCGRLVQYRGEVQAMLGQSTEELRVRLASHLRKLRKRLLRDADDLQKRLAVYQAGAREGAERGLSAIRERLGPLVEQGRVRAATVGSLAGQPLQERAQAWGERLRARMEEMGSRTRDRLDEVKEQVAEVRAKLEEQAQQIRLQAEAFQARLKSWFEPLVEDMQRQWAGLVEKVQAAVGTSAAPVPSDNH
Nature of the assay: pH affinity ELISA, coated hApoE3, pH 7.4.

The target of assay [8] is T3, Apolipoprotein E3. Nature of the assay: pH affinity ELISA, coated hApoE3, pH 6.0.
Assay [9] deals with T3, Apolipoprotein E3. Nature of the assay: pH affinity ELISA, coated hApoE3.

T1 sequence (P02649 19-317 C130R limits assumed): as the sequence (P02649 19-317 limits assumed) above, with C112R counted along it

B1: Anti-ApoE wildtype antibody BAP191.01-WT (antibody, V domains shown)
VH: QIQLVQSGPELKKPGETVKISCKASGYTFTTAGMQWVQKMPGKGFKWIGWINTHSGEPKYAEDFKGRFAFSLETSASTAYLQISNLKNEDTATYFCARMGGYAMDYWGQGTSVTVSS
VL: DIKLTQSPSSMYASLGERVTITCKASEDINSYLSWFQQKPGKSPKTLIYRANRLVDGVPSRFSGSGSGQDYSLTISSLEYEDMGIYYCLQYDEFPLTFGAGTKLELT
notes: also called benchmark; parent
Usually EC50 stands for the concentration giving half of the maximal effect. A lower EC50 goes with higher potency in that assay. With B1, the EC50 with Apolipoprotein E4 [1] turned out to be 0.0368 µg/mL; in the assay with mouse ApoE [2], 0.0926 µg/mL; with mouse ApoE [3], 0.089 µg/mL; with Apolipoprotein E4 [6] it was 0.0797 µg/mL; with Apolipoprotein E3 [7] it was 0.0991 µg/mL; in the assay with Apolipoprotein E3 [8] it was 0.136 µg/mL. In addition, the “Ratio pH 7.4/6.0 (EC50)” value with mouse ApoE [4] was found to be 0.96 ratio; in the assay with Apolipoprotein E4 [5] it was 0.46 ratio; with Apolipoprotein E3 [9], 0.73 ratio.

B2: BAP191.01-CPE-HC-M104E (antibody, V domains shown)
VH: QIQLVQSGPELKKPGETVKISCKASGYTFTTAGMQWVQKMPGKGFKWIGWINTHSGEPKYAEDFKGRFAFSLETSASTAYLQISNLKNEDTATYFCARMGGYAEDYWGQGTSVTVSS
VL: DIKLTQSPSSMYASLGERVTITCKASEDINSYLSWFQQKPGKSPKTLIYRANRLVDGVPSRFSGSGSGQDYSLTISSLEYEDMGIYYCLQYDEFPLTFGAGTKLELT
For B2, the EC50 with Apolipoprotein E4 [1] came out at 68700 µg/mL; with mouse ApoE [2] it was 1.09 µg/mL; in the assay with mouse ApoE [3], 2.45 µg/mL; with Apolipoprotein E4 [6], 4.2 µg/mL; in the assay with Apolipoprotein E3 [7] it was 9.25 µg/mL; with Apolipoprotein E3 [8], 3.13 µg/mL. The figures for the “Ratio pH 7.4/6.0 (EC50)” value in the assay with mouse ApoE [4], with Apolipoprotein E4 [5] and with Apolipoprotein E3 [9] were 2.25 ratio, 18400 ratio and 2.95 ratio, respectively.

B3: BAP191.01-CPE-LC-Y091D (antibody, V domains shown)
VH: QIQLVQSGPELKKPGETVKISCKASGYTFTTAGMQWVQKMPGKGFKWIGWINTHSGEPKYAEDFKGRFAFSLETSASTAYLQISNLKNEDTATYFCARMGGYAMDYWGQGTSVTVSS
VL: DIKLTQSPSSMYASLGERVTITCKASEDINSYLSWFQQKPGKSPKTLIYRANRLVDGVPSRFSGSGSGQDYSLTISSLEYEDMGIYYCLQDDEFPLTFGAGTKLELT
For the molecule B3, the results for the concentration for a half-maximal effect (EC50) with Apolipoprotein E4 [1] and in the assay with Apolipoprotein E4 [6] were 0.15 µg/mL and 0.084 µg/mL, respectively. Also, the “Ratio pH 7.4/6.0 (EC50)” value with Apolipoprotein E4 [5] worked out at 1.79 ratio.

B4: BAP191.01-CPE-HC-I051D (antibody, V domains shown)
VH: QIQLVQSGPELKKPGETVKISCKASGYTFTTAGMQWVQKMPGKGFKWIGWDNTHSGEPKYAEDFKGRFAFSLETSASTAYLQISNLKNEDTATYFCARMGGYAMDYWGQGTSVTVSS
VL: DIKLTQSPSSMYASLGERVTITCKASEDINSYLSWFQQKPGKSPKTLIYRANRLVDGVPSRFSGSGSGQDYSLTISSLEYEDMGIYYCLQYDEFPLTFGAGTKLELT
notes: also called BAP191.01-CPE-HC-1051D
With B4, the EC50 turned out to be 4.75 µg/mL with Apolipoprotein E4 [1], 0.104 µg/mL with mouse ApoE [2], 0.39 µg/mL in the assay with mouse ApoE [3] and 1.54 µg/mL with Apolipoprotein E4 [6]. In addition, the “Ratio pH 7.4/6.0 (EC50)” value in the assay with mouse ApoE [4] amounted to 3.76 ratio; with Apolipoprotein E4 [5] it was 3.07 ratio.

B5: BAP191-01-CPE-HC-M034D (antibody, V domains shown)
VH: QIQLVQSGPELKKPGETVKISCKASGYTFTTAGDQWVQKMPGKGFKWIGWINTHSGEPKYAEDFKGRFAFSLETSASTAYLQISNLKNEDTATYFCARMGGYAMDYWGQGTSVTVSS
VL: DIKLTQSPSSMYASLGERVTITCKASEDINSYLSWFQQKPGKSPKTLIYRANRLVDGVPSRFSGSGSGQDYSLTISSLEYEDMGIYYCLQYDEFPLTFGAGTKLELT
For the molecule B5, the concentration giving a half-maximal response (EC50) was found to be 2.06 µg/mL with Apolipoprotein E4 [1], 0.105 µg/mL with mouse ApoE [2], 0.389 µg/mL with mouse ApoE [3] and 0.685 µg/mL with Apolipoprotein E4 [6]. For the same molecule, the “Ratio pH 7.4/6.0 (EC50)” value in the assay with mouse ApoE [4] was found to be 3.71 ratio; with Apolipoprotein E4 [5] it was 3.01 ratio.

B6: BAP191.01-CPE-LC-P095D (antibody, V domains shown)
VH: QIQLVQSGPELKKPGETVKISCKASGYTFTTAGMQWVQKMPGKGFKWIGWINTHSGEPKYAEDFKGRFAFSLETSASTAYLQISNLKNEDTATYFCARMGGYAMDYWGQGTSVTVSS
VL: DIKLTQSPSSMYASLGERVTITCKASEDINSYLSWFQQKPGKSPKTLIYRANRLVDGVPSRFSGSGSGQDYSLTISSLEYEDMGIYYCLQYDEFDLTFGAGTKLELT
B6: the EC50 with Apolipoprotein E4 [1] came out at 0.147 µg/mL; with mouse ApoE [2], 0.146 µg/mL; with mouse ApoE [3] it was 0.244 µg/mL; in the assay with Apolipoprotein E4 [6] it was 0.0893 µg/mL; in the assay with Apolipoprotein E3 [7], 0.311 µg/mL; in the assay with Apolipoprotein E3 [8] it was 0.245 µg/mL. Besides, the “Ratio pH 7.4/6.0 (EC50)” value with mouse ApoE [4] was found to be 1.67 ratio; in the assay with Apolipoprotein E4 [5] it was 1.65 ratio; with Apolipoprotein E3 [9], 1.27 ratio.

B7: BAP191.01-CPE-HC-R098E (antibody, V domains shown)
VH: QIQLVQSGPELKKPGETVKISCKASGYTFTTAGMQWVQKMPGKGFKWIGWINTHSGEPKYAEDFKGRFAFSLETSASTAYLQISNLKNEDTATYFCAEMGGYAMDYWGQGTSVTVSS
VL: DIKLTQSPSSMYASLGERVTITCKASEDINSYLSWFQQKPGKSPKTLIYRANRLVDGVPSRFSGSGSGQDYSLTISSLEYEDMGIYYCLQYDEFPLTFGAGTKLELT
With B7, the EC50 worked out at 18.9 µg/mL with Apolipoprotein E4 [1], 0.163 µg/mL with mouse ApoE [2], 0.413 µg/mL with mouse ApoE [3] and 4.36 µg/mL with Apolipoprotein E4 [6]. The “Ratio pH 7.4/6.0 (EC50)” value with mouse ApoE [4] was 2.53 ratio; with Apolipoprotein E4 [5], 4.33 ratio.

B8: BAP191.01-CPE-HC-M099E (antibody, V domains shown)
VH: QIQLVQSGPELKKPGETVKISCKASGYTFTTAGMQWVQKMPGKGFKWIGWINTHSGEPKYAEDFKGRFAFSLETSASTAYLQISNLKNEDTATYFCAREGGYAMDYWGQGTSVTVSS
VL: DIKLTQSPSSMYASLGERVTITCKASEDINSYLSWFQQKPGKSPKTLIYRANRLVDGVPSRFSGSGSGQDYSLTISSLEYEDMGIYYCLQYDEFPLTFGAGTKLELT
B8: the EC50 stood at 6890 µg/mL with Apolipoprotein E4 [1], 0.573 µg/mL with mouse ApoE [2], 1.58 µg/mL with mouse ApoE [3] and 2.93 µg/mL with Apolipoprotein E4 [6]. Also, the “Ratio pH 7.4/6.0 (EC50)” value in the assay with mouse ApoE [4] came to 2.75 ratio; with Apolipoprotein E4 [5], 2350 ratio.

Values taken from US20240400659A1 (BIOATLA, published 2024).
